Target: Toxoplasma gondii ABCB7-like (TgABCB7L), TGGT1_269000 (Toxoplasma gondii)
Assay: native gel or EMSA; BN-PAGE (4-16% Bis-Tris) of ABCB7L-HA parasites solubilised in 1% βDDM on ice, immunoblot with anti-HA; bovine mitochondrial membranes as size marker

In the case of “Toxoplasma gondii ABCB7-like (TgABCB7L), TGGT1_269000 (natural protein)”, the stoichiometry N is reported as 2.

From PMC11481526
